Experimental data published in patent US8785135B2, “Mutant G-protein coupled receptors and methods for selecting them” (Heptares Therapeutics Limited, priority 2007, dated 2014).
Changes are numbered by the printed parent chain. In names and notes the source's numbering stands. Where two headings read alike, the source gives them in different places.

Tests used:
[1] = Thermostability assay of βAR34-424 and mutants (heat detergent-solubilised receptor 30 min, then [3H]-DHA binding); conditions: heated 30 min without ligand; for Tm: turkey βAR expressed in E. coli, DDM-solubilised, [3H]-DHA binding, mean ± S.E. from duplicates
Method: Binding assays were performed using [^3H]-dihydroalprenolol (DHA) as radioligand as described under “Methods”. Samples were heated for 30 minutes at different temperatures before the assay. […] Data points are from duplicates of one single experiment. This experiment has been repeated several times with similar results.
Expression of βAR and the mutants was performed in X10 cells (Stratagene). Cultures of 50 ml of 2×TY medium containing ampicillin (100 μg/ml) were grown at 37° C. with shaking until OD600=3 and then induced with 0.4 mM IPTG. Induced cultures were incubated at 25° C. for 4 h and then cells were harvested by centrifugation at 13,000×g for 1 min (aliquots of 2 ml) and stored at ±20° C. For the assays, cells were broken by freeze-thaw (five cycles), resuspended in 500 μl of buffer [20 mM Tris pH 8, 0.4 M NaCl, 1 mM EDTA and protease inhibitors (Complete™, Roche)]. After an incubation for 1 h at 4° C. with 100 μg/ml lysozyme and DNase I (Sigma), samples were solubilized with 2% DDM on ice for 30 minutes. Insoluble material was removed by centrifugation (15,000×g, 2 min, 4° C.) and the supernatant was used directly in radioligand binding assays.
Single point binding assays contained 20 mM Tris pH 8, 0.4 M NaCl, 1 mM EDTA, 0.1% DDM (or corresponding detergent) with 50 nM [^3H]-DHA and 20-100 μg membrane protein in a final volume of 120 μl; equilibration was for 1 h at 4° C. Thermostability was assessed by incubating the binding assay mix, with or without [^3H]-DHA at the specified temperature for 30 minutes; reactions were placed on ice and [^3H]-DHA added as necessary and equilibrated for a further hour. […] Radioactivity was counted on a Beckman LS6000 liquid scintillation counter and data were analyzed by nonlinear regression using Prism software (GraphPad).

[2] = Thermostability of β adrenergic receptors expressed in mammalian cells, minus-ligand format; conditions: 0.1% dodecylmaltoside, apo-state heated, 3H-DHA added after
Text: The resulting mutants were transiently expressed in mammalian cells, solubilised in 0.1% dodecylmaltoside and assayed for thermostability in the minus-ligand format (heating the apo-state, quenching on ice, adding 3H-DHA).

[3] = Thermostability of A2aR and mutants (ligand binding after or during heating); type: physicochemical; conditions: for Tm +agonist / Tm +antagonist / Tm −agonist / Tm −antagonist: 1% DDM (no glycerol); for Tm +agonist: agonist-occupied state; for Tm +antagonist: antagonist-occupied state; for Tm −agonist / Tm −antagonist: apo-state; for Tm −agonist: agonist binding; for Tm −antagonist: antagonist binding; for Tm: ZM241385 bound; for thermostability measured with 3H-NECA (agonist) / thermostability assayed with 3H-ZM241385 (antagonist): Ligand(−) format, binding after the heating step
Text: FIG. 12 Flow chart showing the two different assay formats of ligand (+) and ligand (−) used to determine receptor thermostability.
• 1. 315 site-directed mutants made between residues 2-316 of A2aR. • 2. All of these mutants have been assayed for thermostability using an assay measuring agonist and antagonist binding after the heating step (Ligand(−) format as described in FIG. 12). • a. […] Mutations have been combined to generate mutants in a putative antagonist conformation. Wildtype A2aR has a Tm of 31° C. with ZM241385 bound. • a. Rant17 A54L+K122A+L235A Tm 48° C. (ZM241385 bound) • b. Rant19 A54L, T88A, V239A+A204L Tm 47° C. (ZM241385 bound) • c. Rant21 A54L, T88A, V239A+K122A Tm 49° C. (ZM241385 bound) • 4. Mutations from the agonist screen have been combined, but have led to only a very low level of improvement in Tm of +2° C.

[4] = Stability of wild-type and mutant A2aR in different detergents; type: physicochemical; parameters: key: It was not possible to determine the Tm for some receptor-detergent combinations, because the receptor was too unstable (†)
βAR-m23 = βAR-m23 (Meleagris gallopavo, UniProt P07700, A282L/C116L/F327A/F338M/M90V/R68S/Y227A); type: binding, turkey
βAR-m23, sequence (P07700 34-424 R68S/M90V/C116L/Y227A/A282L/F327A/F338M): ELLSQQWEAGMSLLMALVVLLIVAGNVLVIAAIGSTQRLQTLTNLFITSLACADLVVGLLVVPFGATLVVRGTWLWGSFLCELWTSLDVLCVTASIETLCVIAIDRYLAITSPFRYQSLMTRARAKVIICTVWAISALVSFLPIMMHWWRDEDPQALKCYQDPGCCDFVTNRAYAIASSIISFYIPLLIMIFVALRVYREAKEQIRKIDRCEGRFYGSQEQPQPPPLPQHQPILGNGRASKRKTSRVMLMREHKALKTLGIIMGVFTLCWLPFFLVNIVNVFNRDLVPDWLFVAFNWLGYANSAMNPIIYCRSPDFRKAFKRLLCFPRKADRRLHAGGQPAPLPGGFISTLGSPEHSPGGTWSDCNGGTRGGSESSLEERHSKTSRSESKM

m20: βAR34-424 mutant R68S, M90V, F327A, A334L
Tm [1]: 48.4 ± 0.7 °C

m7-7: βAR34-424 mutant M90V, Y227A, F338M
Tm [1]: 45.2 ± 2.0 °C

human β1: human β1 adrenergic receptor
apparent Tm [2]: ~12 °C

m7-1: βAR34-424 mutant M90V, A282L, F338M
Tm [1]: 43.0 ± 0.8 °C

M90A: βAR34-424 point mutant
increase in Tm compared to βAR34-424 ([1]; DDM): 8 °C

m6-4: βAR34-424 mutant R68S, Y227A, A234L, A282L
Tm [1]: 41.6 ± 0.1 °C

m10-4: βAR34-424 mutant R68S, M90V, V230A, A334L
Tm [1]: 46.9 ± 1.0 °C

turkey β1: turkey β1 adrenergic receptor transiently expressed in mammalian cells
apparent Tm [2]: 23 °C

m6-10: βAR34-424 mutant R68S, Y227A, A282L, A334L
Tm [1]: 47.4 ± 1.1 °C

m6-5: βAR34-424 mutant R68S, A234L, A282L, A334L
Tm [1]: 41.9 ± 0.5 °C

Wildtype A2aR: human adenosine A2a receptor, parent
Tm +agonist [3]: 29 °C
Tm +antagonist [3]: 32 °C
Tm −agonist [3]: 21 °C
Tm −antagonist [3]: 31 °C
Tm [3]: 31 °C
Tm Agonist-binding ([4]; 0.003% LDAO): 28 °C
Tm Antagonist-binding ([4]; 0.003% LDAO): 32 °C
Tm Agonist-binding ([4]; 0.006% FC12): 37 °C
Tm Antagonist-binding ([4]; 0.006% FC12): 43 °C
Tm Agonist-binding ([4]; 0.01% DDM): 27 °C
Tm Antagonist-binding ([4]; 0.01% DDM): 25 °C
Tm Agonist-binding ([4]; 0.1% DM): 23 °C
Tm Antagonist-binding ([4]; 0.1% DM): 10 °C
Tm Agonist-binding ([4]; 0.3% NG): †
Tm Antagonist-binding ([4]; 0.3% NG): †
Tm Agonist-binding ([4]; 0.3% NM): 22 °C
Tm Antagonist-binding ([4]; 0.3% NM): <4 °C
Tm Agonist-binding ([4]; 0.6% OG): <9 °C
Tm Antagonist-binding ([4]; 0.6% OG): †

m6-9: βAR34-424 mutant R68S, Y227A, A234L, A282L, A334L
Tm [1]: 43.7 ± 0.4 °C

1-[4,6-propyl-^3H]-dihydroalprenolol [[^3H]-dihydroalprenolol]
Kd (βAR-m23; membranes, n=2): 6.5 ± 0.2 nM
Kd (βAR-m23; semipurified receptor): 12.5 nM

B1: K315A: A2aR point mutant (protein, UniProt P29274 1-412, looked up, variant K315A)
Adenosine receptor A2a: MPIMGSSVYITVELAIAVLAILGNVLVCWAVWLNSNLQNVTNYFVVSLAAADIAVGVLAIPFAITISTGFCAACHGCLFIACFVLVLTQSSIFSLLAIAIDRYIAIRIPLRYNGLVTGTRAKGIIAICWVLSFAIGLTPMLGWNNCGQPKEGKNHSQGCGEGQVACLFEDVVPMNYMVYFNFFACVLVPLLLMLGVYLRIFLAARRQLKQMESQPLPGERARSTLQKEVHAAKSLAIIVGLFALCWLPLHIINCFTFFCPDCSHAPLWLMYLAIVLSHTNSVVNPFIYAYRIREFRQTFRKIIRSHVLRQQEPFAAAGTSARVLAAHGSDGEQVSLRLNGHPPGVWANGSAPHPERRPNGYALGLVSGGSAQESQGNTGLPDVELLSHELKGVCPEPPGLDDPLAQDGAGVS
thermostability measured with 3H-NECA (agonist) [3]: improved thermostability

B2: A184L: A2aR point mutant (protein, UniProt P29274 1-412, looked up, variant A184L)
Adenosine receptor A2a: B1 Adenosine receptor A2a with A184L, A315K
thermostability measured with 3H-NECA (agonist) [3]: improved thermostability

B3: K122A: A2aR point mutant (protein, UniProt P29274 1-412, looked up, variant K122A)
Adenosine receptor A2a: B1 Adenosine receptor A2a with K122A, A315K
thermostability assayed with 3H-ZM241385 (antagonist) [3]: improved thermostability

B4: V239A: A2aR point mutant (protein, UniProt P29274 1-412, looked up, variant V239A)
Adenosine receptor A2a: B1 Adenosine receptor A2a with V239A, A315K
thermostability assayed with 3H-ZM241385 (antagonist) [3]: improved thermostability

B5: H75A: A2aR point mutant (protein, UniProt P29274 1-412, looked up, variant H75A)
Adenosine receptor A2a: B1 Adenosine receptor A2a with H75A, A315K
thermostability assayed with 3H-ZM241385 (antagonist) [3]: improved thermostability

B6: T119A: A2aR point mutant (protein, UniProt P29274 1-412, looked up, variant T119A)
Adenosine receptor A2a: B1 Adenosine receptor A2a with T119A, A315K
thermostability assayed with 3H-ZM241385 (antagonist) [3]: improved thermostability

B7: G114 A: A2aR point mutant (protein, UniProt P29274 1-412, looked up, variant G114A)
Adenosine receptor A2a: B1 Adenosine receptor A2a with G114A, A315K
thermostability assayed with 3H-ZM241385 (antagonist) [3]: improved thermostability
thermostability measured with 3H-NECA (agonist) [3]: improved thermostability

B8: G123A: A2aR point mutant (protein, UniProt P29274 1-412, looked up, variant G123A)
Adenosine receptor A2a: B1 Adenosine receptor A2a with G123A, A315K
thermostability assayed with 3H-ZM241385 (antagonist) [3]: improved thermostability

B9: A54L: A2aR point mutant (protein, UniProt P29274 1-412, looked up, variant A54L)
Adenosine receptor A2a: B1 Adenosine receptor A2a with A54L, A315K
thermostability assayed with 3H-ZM241385 (antagonist) [3]: improved thermostability

B10: G152A: A2aR point mutant (protein, UniProt P29274 1-412, looked up, variant G152A)
Adenosine receptor A2a: B1 Adenosine receptor A2a with G152A, A315K
thermostability assayed with 3H-ZM241385 (antagonist) [3]: improved thermostability

B11: Rant19: A2aR mutant A54L, T88A, V239A+A204L (protein, UniProt P29274 1-412, looked up, variant A54L T88A V239A A204L)
Adenosine receptor A2a: B1 Adenosine receptor A2a with A54L, T88A, A204L, V239A, A315K
Tm [3]: 47 °C

B12: P149A: A2aR point mutant (protein, UniProt P29274 1-412, looked up, variant P149A)
Adenosine receptor A2a: B1 Adenosine receptor A2a with P149A, A315K
thermostability assayed with 3H-ZM241385 (antagonist) [3]: improved thermostability

B13: L167A: A2aR point mutant (protein, UniProt P29274 1-412, looked up, variant L167A)
Adenosine receptor A2a: B1 Adenosine receptor A2a with L167A, A315K
thermostability measured with 3H-NECA (agonist) [3]: improved thermostability

B14: A231L: A2aR point mutant (protein, UniProt P29274 1-412, looked up, variant A231L)
Adenosine receptor A2a: B1 Adenosine receptor A2a with A231L, A315K
thermostability assayed with 3H-ZM241385 (antagonist) [3]: improved thermostability

B15: L235A: A2aR point mutant (protein, UniProt P29274 1-412, looked up, variant L235A)
Adenosine receptor A2a: B1 Adenosine receptor A2a with L235A, A315K
thermostability assayed with 3H-ZM241385 (antagonist) [3]: improved thermostability

B16: V57A: A2aR point mutant (protein, UniProt P29274 1-412, looked up, variant V57A)
Adenosine receptor A2a: B1 Adenosine receptor A2a with V57A, A315K
thermostability assayed with 3H-ZM241385 (antagonist) [3]: improved thermostability

B17: A204L: A2aR point mutant (protein, UniProt P29274 1-412, looked up, variant A204L)
Adenosine receptor A2a: B1 Adenosine receptor A2a with A204L, A315K
thermostability assayed with 3H-ZM241385 (antagonist) [3]: improved thermostability

B18: T88A: A2aR point mutant (protein, UniProt P29274 1-412, looked up, variant T88A)
Adenosine receptor A2a: B1 Adenosine receptor A2a with T88A, A315K
thermostability assayed with 3H-ZM241385 (antagonist) [3]: improved thermostability

B19: R199A: A2aR point mutant (protein, UniProt P29274 1-412, looked up, variant R199A)
Adenosine receptor A2a: B1 Adenosine receptor A2a with R199A, A315K
thermostability measured with 3H-NECA (agonist) [3]: improved thermostability

B20: Rag 1: A2aR mutant A184L/R199A/L272A (protein, UniProt P29274 1-412, looked up, variant A184L R199A L272A)
Adenosine receptor A2a: B1 Adenosine receptor A2a with A184L, R199A, L272A, A315K
Tm +agonist [3]: 34 °C
Tm −agonist [3]: 26 °C

B21: Rant 5: A2aR mutant A54L/T88A/V239A (protein, UniProt P29274 1-412, looked up, variant A54L T88A V239A)
Adenosine receptor A2a: B1 Adenosine receptor A2a with A54L, T88A, V239A, A315K
Tm +antagonist [3]: 46 °C
Tm −antagonist [3]: 42 °C

B22: E151A: A2aR point mutant (protein, UniProt P29274 1-412, looked up, variant E151A)
Adenosine receptor A2a: B1 Adenosine receptor A2a with E151A, A315K
thermostability assayed with 3H-ZM241385 (antagonist) [3]: improved thermostability

B23: G118A: A2aR point mutant (protein, UniProt P29274 1-412, looked up, variant G118A)
Adenosine receptor A2a: B1 Adenosine receptor A2a with G118A, A315K
thermostability assayed with 3H-ZM241385 (antagonist) [3]: improved thermostability
thermostability measured with 3H-NECA (agonist) [3]: improved thermostability
